# Changes are numbered by the printed parent chain.
# T1: human BCMA (human, UniProt Q02223 1-54)
# T1 construct: also called huBCMA; hBCMA
# T1 sequence: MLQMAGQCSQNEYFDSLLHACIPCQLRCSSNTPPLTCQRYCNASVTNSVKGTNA
# B1: L3.PY/H2.DY (antibody, V domains shown)
# VH: EVQLLESGGGLVQPGGSLRLSCAASGFTFGSYAMTWVRQAPGKGLEWVSAIDYSGGNTFYADSVKGRFTISRDNSKNTLYLQMNSLRAEDTAVYYCARVSPIASGMDYWGQGTLVTVSS
# VL: EIVLTQSPGTLSLSPGERATLSCRASQSVSSSYLAWYQQKPGQAPRLLIYGASSRATGIPDRFSGSGSGTDFTLTISRLEPEDFAVYYCQHYPYPPSFTFGQGTKVEIK
# notes: IgG in the assay
# B2: L3.PY/H2.QR (antibody, V domains shown)
# VH: B1 VH with D52S, Y53G, S63Q, V64R
# VL: B1 VL
# notes: IgG in the assay
# B3: L3.PY/H2.QL (antibody, V domains shown)
# VH: B1 VH with D52S, Y53G, S63Q, V64L
# VL: B1 VL
# notes: IgG in the assay
# B4: L3.PY/H3.AQ (antibody, V domains shown)
# VH: B1 VH with D52S, Y53G, S104A, G105Q
# VL: B1 VL
# notes: IgG in the assay
# B5: L3.PY/H2.HA (antibody, V domains shown)
# VH: B1 VH with D52S, Y53H, S54A
# VL: B1 VL
# notes: IgG in the assay
# B6: L3.PY/H2.YQ (antibody, V domains shown)
# VH: B1 VH with D52S, S54Q
# VL: B1 VL
# notes: IgG in the assay
# B7: L3.PY/H3.AE (antibody, V domains shown)
# VH: B1 VH with D52S, Y53G, S104A, G105E
# VL: B1 VL
# notes: IgG in the assay
# B8: L3.PY/H2.LT (antibody, V domains shown)
# VH: B1 VH with D52S, Y53L, S54T
# VL: B1 VL
# notes: IgG in the assay
# B9: L3.PY/L3.KY/H2.QL (antibody, V domains shown)
# VH: B1 VH with D52S, Y53G, S63Q, V64L
# VL: B1 VL with Q90K, H91Y
# notes: IgG in the assay
# B10: L3.PY/L3.KY/H2.DY (antibody, V domains shown)
# VH: B1 VH
# VL: B1 VL with Q90K, H91Y
# notes: IgG in the assay
# B11: L3.PY/L3.KY/H2.LT (antibody, V domains shown)
# VH: B1 VH with D52S, Y53L, S54T
# VL: B1 VL with Q90K, H91Y
# notes: IgG in the assay
# B12: L3.PY/L3.KY/H2.YQ (antibody, V domains shown)
# VH: B1 VH with D52S, S54Q
# VL: B1 VL with Q90K, H91Y
# notes: IgG in the assay
# B13: L3.PY/L3.KF/H3.YA (antibody, V domains shown)
# VH: B1 VH with D52S, Y53G, A103Y, S104A
# VL: B1 VL with Q90K, H91F
# notes: IgG in the assay
# B14: L3.PY/L3.KY/H3.YA (antibody, V domains shown)
# VH: B1 VH with D52S, Y53G, A103Y, S104A
# VL: B1 VL with Q90K, H91Y
# notes: IgG in the assay
# B15: L3.PY/L3.KY/H2.HA (antibody, V domains shown)
# VH: B1 VH with D52S, Y53H, S54A
# VL: B1 VL with Q90K, H91Y
# notes: IgG in the assay
# B16: L3.PY/L3.KY/H3.TAQ (antibody, V domains shown)
# VH: B1 VH with D52S, Y53G, A97T, S104A, G105Q
# VL: B1 VL with Q90K, H91Y
# notes: IgG in the assay
# B17: L3.PY/L3.KY/H2.QR (antibody, V domains shown)
# VH: B1 VH with D52S, Y53G, S63Q, V64R
# VL: B1 VL with Q90K, H91Y
# notes: IgG in the assay
# B18: L3.PY/L3.KF/H3.TAQ (antibody, V domains shown)
# VH: B1 VH with D52S, Y53G, A97T, S104A, G105Q
# VL: B1 VL with Q90K, H91F
# notes: IgG in the assay
# Target: T2, cyBCMA (cynomolgus, UniProt A0A2K5UD97 1-53)
# T2 construct: Soluble analyte in SPR; construct not described; also called cyno BCMA
# Test: SPR, immobilised IgG, 37° C
# T2 sequence (A0A2K5UD97 entry or part of it): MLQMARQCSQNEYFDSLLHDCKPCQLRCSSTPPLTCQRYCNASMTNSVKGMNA
row,Binder,T½
1,B1,1.87 min
2,B2,1.76 min
3,B3,0.91 min
4,B4,2.14 min
5,B5,1.53 min
6,B6,1.86 min
7,B7,2.29 min
8,B8,1.53 min

# Target: T1, human BCMA
# Test: SPR, immobilised IgG, 37° C
row,Binder,T½
1,B1,8.37 min
2,B9,5.56 min
3,B10,18 min
4,B2,9.75 min
5,B11,12.8 min
6,B3,5.31 min
7,B4,6.69 min
8,B5,7.89 min
9,B12,7.02 min
10,B13,7.85 min
11,B14,12.7 min
12,B15,7.1 min
13,B6,7.41 min
14,B16,17.8 min
15,B17,11.7 min
16,B18,7.12 min
17,B7,8.32 min
18,B8,8.95 min

# — patent publication US20240018252A1 (Pfizer, published 2024)
